Experimental data published in the NTF2 design screens of Basanta et al. (2020).

Assay: protease stability score; higher = more stable; yeast display proteolysis, trypsin and chymotrypsin;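 also: relative to predicted unfolded state with 0 unfolded-like and 1 meaning tenfold more protease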

Sequence | protease stability score
SEMEEVYKRWVDLFRHAMDTGNEDLHLHLLDPHVRININGVELIGRDDDRDHLERLRKELGVSRFEMRVRIRDVDIQGDKIRSETEFTVIFNGREIIIKTRLILEKVNGRWILRSLEYN | 1.39
SEMEHNLLEFIEHLLRNWRTGDEDREHELADPHYRIDVNGVELHGMEYLLEMFRRLGIDHMEFELKRSTVVGDFAIVDGNLQFHVDGKWERRKVKMVNKKVDGRWHHTQFSVN | 1.5
SEMEHQSRKILEDTLRQWLTGDWHSLHELMDPNTKLDVGDKHFHGREAVKVFLERADHVKDLQIDHMRIQGDKIETDVHMHVTVGDKEKDVEVELIVLKVNGKWLLRSASIK | 1.22
SEMEKLYRDLYKRFLDNWVTGDEEKLIKYADPNTRLHVGDKHHHGMEHISHLFLEFVYRADHHEYRIDRLEVVDGVAISDGRMREEIGEFELRFDVEIRIVIVNGRLKWIEVSFK | 0.839
SEMENLAREALRIIFHNVLTGDEEEFIRMADPNVRFDINGVEYHGWKRVLQELQRFKGLRIHHIHLEDMDNQGDKIIIYSKLEVHYNGVHTELTVEFISEKVNGRWILRMVVFH | 2.47
SEMHEATEHLLKLWVHIFETGNEKWFNKLADPDYRSRILYGDKELKSHGRENVVEVLYRWLKHFGFDHVRLEDEHIQGNKVHLHFRVQVNGRHHELDLNIDMVNGKIRHVEVILH | 1.5
SEMHEDAEEVLRRISHYLNTGDEDSFLEMADPHTRIRVGNKEYIGREWSLVLIEKVKGARQEIRIELKDVNLVNGRLEVDGRFRLHYRFNGKTVDEHRNVIVYSYKFNGRWEIKSEQVD | 1.49
SENDELNEKLVRDWIISLHTGDEETLRDLLDPHVKVEVGEKRMHGREEYVTHLLHHARRADHIRIEIHQVHNQGDKVNIDGTLHIDVNGKHQHHRVTIIASKVNGKWLIESINIH | 1.03
SENEETAEDVIELVIEAWVTGDEDLFLSLLDPRVRLEVNGVHHHGRERVLEEIIKNLETLGVDHIEIRIREIKLIGEWVEIHGELIYRYNGVHERRDVEIIAFKFNGRWVLRSLRVR | 1.82
SENEKILHDLSKELFDIYHTGNEERWSEMADPHVKIDVNGQEYHGREEVEEELEHWRRRFKNARYEIHKIHVFDGRLLIEGHINIDGKKRQIHFRIHVVNGKIKEMRIEIR | 1.82
SENEKRMRELAEIILISWWTGDEDTLKDLADPRTRVNIDGVDLIGMELTSEFLERHLREMRIHSIELESITVIDGQAHIHLEVDTVVNGVRIRTKIHILVVTVDGRLKSEHYHRR | 0.446
SENHKLSREALEHFLHLVHTGDFEKIYHMLDPNVKSEAENHHDHGMRDVVHLWRTMGIDHIRVHEVRIFENHLDVDMISIVGDKHFRLNIHIRKVNGRWQTELVRVN | 1.8
SENHRNLLEWARIALEALITGDWKMLLDLLDPNVRFIFNGVHLHGMEHVFHRMTREIKEIRIKFEVHDMRSIGEKVEMDTRRHVEVNGVETTIDTRVHVVVIDGVIHEIRIEHR | 1.1
SENKRVAVEWVRDFLRALRTGDEDRVRQLADPHVRIDFNGRDHHGRHFLVRMLREIRIHDVRIRDVDVQGDFLITELEIDVEIDGKRDTLRMNIIFEKVDGRWMVSEVQFE | 1.5
SEQDEMAEKWVHMFLHSWFTGDEDFFETLLDPNVQLIVNGKHHHGREDVKRFLHEEYRRIDHIEDFHLRRLEIQGDFARLDGEVIMIVNGRRHEFRVEIRLFIVNGKMRSIEINEE | 2.23
SEQEEITKKATEDMLRNIETGDPDMIDHLLDPDVRQEIIINGRSHENHGMEKLRKWLSTWHDEFKNVKYDLRTVEIIDGRVRIEGVLNVDGVDLHIEIRLVIVNGKLREVYHHVD | 1.36
SEQEELSKKFFHDLLHAMKTGDESSLYSFLDPNMKHEFDGKVIHGMEEVARIIVEKLERADHHDIRIHDEKMQGDYLVMDVRIIINIDGKEVIKDIKLTWLKIDGRWHVTSVVLH | 1.73
SEQEERETRFMEKAWDLLRTGDEHLLERLADPNARLEIDGRKKHGRETIIEYFRHVKEHLGFKHIELHHMHLVDGVLHIDGIFRYGDKTHRTEIVYYVVNGRLERIEIIIL | 1.22
SEQEESRRWWLEELLTFLVTGDENRLKELLDPDVRVVVNGKHLHGMEAFEEYLRQIDHVDSHKVTDVKVQGNKIIVHTRAKINVDGRHVETELIFIVHKIDGKWKLHSFESR | 1.69
SEQEEYLKEYAKHFYEFLLTGDEDWLKRLFDPEARLTVEVGDKTEHLHGREEVSKFWKHLLTEMRIEMTLKDLDSQGEFIVSVTELNINIDGKTIHTRMEIILVVVNGRLREVELRIK | 2.3
SEQEHFDRLAFKLLLHSIHTGDWRLLTEEFDPNTLIIIGEKIHHGMEFVREHIEVLGADHVDIEIHIRHVRHQGNKADMDMQVDIDIDVNGRRIRIRSRRRYISLKVDGRWVTTSLEIK | 0.939
SEQEKELQDALEILMHRWLTGDEDFLYEMMDPNVRFTINGQDFHGRDFFRQKWKELGLTRVEIDLKFVRLQGDKATVHGHINFNGRTTDVIMYIDKVNGVWITKTIEFR | 2.17
SEQERKVREWTEEEIRWFLTGDEDIWSHFADPNARSVHHIGNKTIHTHGMEDVTRVIRELLQELGADHRTVHELEIQGDKSTVNLEIRIGDKTYEVHIIIIIINGKRKYHIVHFRVQ | 0.982
SEQHEITEHIARIILEFLTTGDFTEFFKMLDPHVRITVGDKFNVGRHVFWHLWQELFDHIRIRHISLKHIHIVDGRLHLDTRVHGKVDGKETTLDQHIHIEIINGRITSVNLEYR | 2.12
SEQHKIAQEMAERILELWQTGDEDTFRYLADPHYRLHIIINGKHHDHHGREEWDKWYRELLDRIDHVRLIWRSVETQGDKLRVDGELVLIIDGKRIVEKVHLEFRVIDGVLRHETIKVR | 1.48

Sequence | protease stability score
SEQSKHVKDMFDTWVHSERTGDWRVAKELVDPNARIDINGREFHGMEEAERLAHEIFTRIDHKELRIDHVHFINGVFKVEGTVIFRQGDKQFTIETRIHLFVINGRLKELKVEFI | 1.15
SEQWEEAKRLTDLYLTTSHTGDEQLSREFMDPHARTIVDGVEVHGMEEWANRFMRFVKQLRVDFRIHDMDVQGEKVDVDIRIRFVFNGVEHRIESILIVHKINGRWLMKEQRII | 1.34
SERDEEAKHLSEEIIRLWRTGDWKTFVRMLDPNDRMEVDGQSFHGMEDVIKFLLDFWKHLRIEDIRFRDLKYQGDKASSHTEVDVRIGDKQTRLHTEVDVLVVNGKLKSHRIKIE | 1.08
SERDELVEKLMESALDFWRTGNEDLMERLLDPHVRLDINGREHHGREVVIKAFREIWMLLGIDHIDIHHVDIQGEYVHLDVRVKVNGKDTRSRIELIVVDGKITELIIRLR | 2.51
SERDEVAHLAFEYLINTHQTGDWRLFKEYLDPNVRFHVGDKFFHGRESVSKFFEEEMHRLGFKHIEMEHFEQQGDYLTINLTVRVDGQEYKLIYFALKVDGRWILRSITFE | 1.38
SERDKFTEEVARLWYHLLYTGNEELLQHMMDPDVRVHINGRTVVGRHEATRLLHELSETFGINHIHIHDIKIQGDKSDDDTEIQAPGRRVRVHIHLEIINGRIKRIEFRIE | 1.68
SERDRHNEEMARHFIRLFLTGDWDDFQHLFDPNVRTHIDGRDYHGWRSTLEAVRTLEREIRIEEIRVEHVDTQGDFIHQDTKVDFNVNGQRVIRESKVHIYEVNGRIKEIEMHYH | 0.486
SERDRIAKELKDILRSSRETGDERMMEELADPNVRFEINGVTIIGREEFYRWMSEWRLELEHSNDHDEREFDGQVNVDGTLVMRFTVNGQERREKVRITIHFLKVDGRWILHRIIIH | 2.03
SEREDEMNHSRHLIEDSWRTGDFHITVRLADPHMKVIVGDYEYHGREHLHEVARNADIYHRIHINDWRIIGNKVEIDTEIDGFFNGVPHRTRVEIILSKINGRWILRSIIFR | 1.31
SEREDITHEFIQKTIKAIHTGDFILLLRLLDPDMQFDIGDKEFIGRERLREFMEEWRVRVKHYEIEHVRLQGDKLETHTHEHREIWIGDKVVHERFDRKIEITKVDGQWAIKRVEII | 0.284
SEREEDTEHHMRMLIKDHETGDWRSWKKLVDPHVKLEINGREHHGRELALHMFRRVDHIESTVRDRTIQGDKVHHDGHLIINVDGVNIIVRSEIILIKVDGQWRIEILIFR | 0.957
SEREEEARKMTRRIIHTFFTGNEDFWDHLVDPNARVVINGVTVHGWERFQELLVDFLKEMRTRHIELRHLDAYGDKAHTDGRVDGDVNGQRVLRIEHLRVDVINGKVHSVEIEFR | 0.916
SEREEEMKHLHKNLVHNLFTGDEDSHKKLADPNARSVFDGRDFIGMDWWSRYYRHVFERFKGLRLENHHIHFQGNYLHIEARSYIGDKEEIWHFDYFMFDGKVHEVRMEVTKR | 0.813
SEREEENRRAFHKFWEIIKTGDEELQDTFADPHVRLDVDGKEFHGREWIVRMLTELLRRFGVDHITFKHVEVQGDKLIIHHRDEVGDKKFELHVIVDKINGRWYERHVSMSER | 1.65
SEREEHDEFIMKLSLELEKTGDEHTIERLADPNPRIILEQGDKRITRHGWEHWEELLRRLGIKHIEFHRHKAINGQVHVDGTLRFDGVTVRSELVLIMVDGVMKTIKVIIR | 1.44
SEREEHTEEVWRDWLQSILTGDEDDLKRLADPHVRLEINFDGRTLIYHGREIVARFWSELRIRHFTLRHLKMIGDKIQVKGETKLEQGDKKVDSSVDLDTDIINGVIKREFVVYR | 0.892
SEREEKIEHALRRLFEVILTGDERLANELLDPNVLLDVGDKKIHGREEVMRILHHWRIDKFEMHTHDIRLIGEKAHVDTISDRRVHVNGRTQDITERVHFVVLKVNGVWFIHSMHIH | 1.59
SEREELVRYAIELMEEVMRTGDERLIESMADPNTRVVVNGVELHGRNHLLRVWSEWRTRDMREREVHVYDGRIEMHGTSDITIGDKHVITDTRHIAEKVDGRWILRSVEFR | 0.405
SEREESFEKWVEMYERALQTGDEEHISRLMDPNARSNINGVELHGREQTLEWLRHVKENLGVERVDVRVNLHRYRVIGNYIESDQELILIYNGREFRFHFHFIARKINGRWVVDRLEIK | 2.51
SEREEYLEEMFHLFIHYLLTGDWELLINLMDPHARNEIHINGVIFLVHGRELVKEIWERFRKHIRIKHIHVEELRVQGDKAESHTWVHYTIDGRESRVFTRVEIRIIDGVVRRISVEIR | 1.72
SEREEYSHRAVELLIHLLRTGDEDMISKLADPNTYLDWNGREEVGMEDWLRLLREMRIHDVIIHTIEIQGDKIHMDVIIDGEFDGRRTEMRVHLILLKVNGRWVLTEVKIH | 1.03
SEREHEALRWMELIIDLWITGDEEFTHKLADPHAKYEYGDKVIHGMEEFTRIMNEWRIKRVHLHEFRFIGNFSHSNMHRRGNIDGVDVDTEITVTVVIVNGRISSISIEVR | 0.751
SEREHEVQESLEILIKLWHTGDFRAISEYADPNVRSDVNGKEFHGRENVEEALERSMKDLGVKVVHSEHIEHLEIYGNKVIVHVRIDGEVDGKRFHSHFIMYTTKVDGQWRVHEIRVH | 1.03
SEREHLADRFVKELTTALQTGDEEKIREMFDPHMKLIINGVTFHGWEELEKIRKRVDHIEHVEVRIEDVRIINGVVEIKGELHVHERVGDKIIDRSNDQTYFVEKVNGRWILKQVELH | 1.14
SEREKESERLWRLSAEVMETGDESMSLKEFDPHYRVLFDGQDFHGREQWKEFLERFDHEALKRFHEKRDDRQGDKAIHEGDLDLVLNYGDKQLRTRRDVIFYITKVNGKWMIKIVEFV | 0.084
